The values below come from patent publication US10800813 (Bicycle, dated 2020).

Read-outs that look alike come from different tables or passages of the source. Numbered stars: 1 amine (or outer) side, 2 acyl side, 3 side chain; on linkers, the order of the positions; unused ones are H or OH. Bridge positions count the residues as written; N and C are the ends. Square brackets hold non-standard residues; d marks the D form. Phe(4-guanidino) = N=C(N)Nc1ccc(C[C@H](N)C(=O)O)cc1; NMeW = CN[C@@H](Cc1c[nH]c2ccccc12)C(=O)O; TBMB = c1c(C[*:1])cc(C[*:3])cc1C[*:2]; hArg = N=C(N)NCCCC[C@H](N)C(=O)O; β3hR = N=C(N)NCCC[C@H](N)CC(=O)O; Cit = NC(=O)NCCC[C@H](N)C(=O)O; Agb = N=C(N)NCC[C@H](N)C(=O)O; Agp = N=C(N)NC[C@H](N)C(=O)O; NMeC = CN[C@@H](CS)C(=O)O; NMeS = CN[C@@H](CO)C(=O)O; NMeA = CN[C@@H](C)C(=O)O; Aze = O=C(O)[C@@H]1CCN1

Experiment in all cases: enzyme inhibition assay
Test [1] addresses T1, human plasma Kallikrein (human, UniProt P03952 20-638, limits assumed).
T1 construct: also called hPK; human PK

The target in test [2] is T1, human plasma Kallikrein. The source holds these as a separate data set.
The target of test [3] is T1, human plasma Kallikrein. This is another data set of the same source.
Test [4] addresses T1, human plasma Kallikrein. This is another data set of the same source.
Test [5] concerns the target T1, human plasma Kallikrein. This is another data set of the same source.

T1 sequence (P03952 20-638 limits assumed): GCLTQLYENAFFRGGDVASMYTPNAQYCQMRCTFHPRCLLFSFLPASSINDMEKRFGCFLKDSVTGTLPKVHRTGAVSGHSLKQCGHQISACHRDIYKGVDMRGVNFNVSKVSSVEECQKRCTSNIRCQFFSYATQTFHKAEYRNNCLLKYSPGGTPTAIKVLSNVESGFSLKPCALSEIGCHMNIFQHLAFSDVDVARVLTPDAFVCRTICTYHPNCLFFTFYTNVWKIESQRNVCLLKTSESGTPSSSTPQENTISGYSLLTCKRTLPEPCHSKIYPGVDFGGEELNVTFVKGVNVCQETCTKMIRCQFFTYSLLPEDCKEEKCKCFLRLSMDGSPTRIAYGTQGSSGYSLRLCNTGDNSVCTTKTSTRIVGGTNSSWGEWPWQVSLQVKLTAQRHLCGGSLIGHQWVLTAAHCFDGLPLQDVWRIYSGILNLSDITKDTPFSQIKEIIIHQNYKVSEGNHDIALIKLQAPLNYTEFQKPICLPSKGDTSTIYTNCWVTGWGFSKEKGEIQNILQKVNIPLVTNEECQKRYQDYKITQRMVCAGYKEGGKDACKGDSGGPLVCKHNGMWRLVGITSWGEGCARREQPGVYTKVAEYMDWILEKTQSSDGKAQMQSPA

B1: Ac-(06-34-18) Scram 4 (peptide)
peptide: Ac-CWARSPCLHQDLC-NH2
modifications: linker 1-7-13 via TBMB
SMILES: CC(=O)N[C@H]1CSCc2cc3cc(c2)CSC[C@H](NC(=O)[C@@H]2CCCN2C(=O)[C@H](CO)NC(=O)[C@H](CCCNC(=N)N)NC(=O)[C@H](C)NC(=O)[C@H](Cc2c[nH]c4ccccc24)NC1=O)C(=O)N[C@@H](CC(C)C)C(=O)N[C@@H](Cc1c[nH]cn1)C(=O)N[C@@H](CCC(N)=O)C(=O)N[C@@H](CC(=O)O)C(=O)N[C@@H](CC(C)C)C(=O)N[C@H](C(N)=O)CSC3
As for B1, in the test with human plasma Kallikrein [1], the Ki amounted to 67500 nM.

B2: Ac-(06-34-18) Agb5 (peptide)
peptide: Ac-CSWPA[Agb]CLHQDLC-NH2
modifications: linker 1-7-13 via TBMB
SMILES: CC(=O)N[C@H]1CSCc2cc3cc(c2)CSC[C@H](NC(=O)[C@H](CCNC(=N)N)NC(=O)[C@H](C)NC(=O)[C@@H]2CCCN2C(=O)[C@H](Cc2c[nH]c4ccccc24)NC(=O)[C@H](CO)NC1=O)C(=O)N[C@@H](CC(C)C)C(=O)N[C@@H](Cc1c[nH]cn1)C(=O)N[C@@H](CCC(N)=O)C(=O)N[C@@H](CC(=O)O)C(=O)N[C@@H](CC(C)C)C(=O)N[C@H](C(N)=O)CSC3
The molecule B2 returned a Ki in the test with human plasma Kallikrein [2] of 83 nM.

B3: Ac-(06-34-18) Agp5 (peptide)
peptide: Ac-CSWPA[Agp]CLHQDLC-NH2
modifications: linker 1-7-13 via TBMB
SMILES: CC(=O)N[C@H]1CSCc2cc3cc(c2)CSC[C@H](NC(=O)[C@H](CNC(=N)N)NC(=O)[C@H](C)NC(=O)[C@@H]2CCCN2C(=O)[C@H](Cc2c[nH]c4ccccc24)NC(=O)[C@H](CO)NC1=O)C(=O)N[C@@H](CC(C)C)C(=O)N[C@@H](Cc1c[nH]cn1)C(=O)N[C@@H](CCC(N)=O)C(=O)N[C@@H](CC(=O)O)C(=O)N[C@@H](CC(C)C)C(=O)N[C@H](C(N)=O)CSC3
Consider B3, for which the Ki with human plasma Kallikrein [2] came to 1770 nM.

B4: Ac-(06-34-18) NMeCys2 (peptide)
peptide: Ac-CSWPAR[NMeC]LHQDLC-NH2
modifications: linker 1-7-13 via TBMB
SMILES: CC(=O)N[C@H]1CSCc2cc3cc(c2)CSC[C@@H](C(=O)N[C@@H](CC(C)C)C(=O)N[C@@H](Cc2c[nH]cn2)C(=O)N[C@@H](CCC(N)=O)C(=O)N[C@@H](CC(=O)O)C(=O)N[C@@H](CC(C)C)C(=O)N[C@H](C(N)=O)CSC3)N(C)C(=O)[C@H](CCCNC(=N)N)NC(=O)[C@H](C)NC(=O)[C@@H]2CCCN2C(=O)[C@H](Cc2c[nH]c3ccccc23)NC(=O)[C@H](CO)NC1=O
For B4, the Ki with human plasma Kallikrein [3] stood at 418 nM.

B5: Ac-(06-34-18) NMeSer1, NMeAla4 (peptide)
peptide: Ac-C[NMeS]WP[NMeA]RCLHQDLC-NH2
modifications: linker 1-7-13 via TBMB
SMILES: CC(=O)N[C@H]1CSCc2cc3cc(c2)CSC[C@H](NC(=O)[C@H](CCCNC(=N)N)NC(=O)[C@H](C)N(C)C(=O)[C@@H]2CCCN2C(=O)[C@H](Cc2c[nH]c4ccccc24)NC(=O)[C@H](CO)N(C)C1=O)C(=O)N[C@@H](CC(C)C)C(=O)N[C@@H](Cc1c[nH]cn1)C(=O)N[C@@H](CCC(N)=O)C(=O)N[C@@H](CC(=O)O)C(=O)N[C@@H](CC(C)C)C(=O)N[C@H](C(N)=O)CSC3
B5: in the test with human plasma Kallikrein [3], the Ki amounted to 444 nM.

B6: Ac-(06-34-18) NMeAla4 (peptide)
peptide: Ac-CSWP[NMeA]RCLHQDLC-NH2
modifications: linker 1-7-13 via TBMB
SMILES: CC(=O)N[C@H]1CSCc2cc3cc(c2)CSC[C@H](NC(=O)[C@H](CCCNC(=N)N)NC(=O)[C@H](C)N(C)C(=O)[C@@H]2CCCN2C(=O)[C@H](Cc2c[nH]c4ccccc24)NC(=O)[C@H](CO)NC1=O)C(=O)N[C@@H](CC(C)C)C(=O)N[C@@H](Cc1c[nH]cn1)C(=O)N[C@@H](CCC(N)=O)C(=O)N[C@@H](CC(=O)O)C(=O)N[C@@H](CC(C)C)C(=O)N[C@H](C(N)=O)CSC3
On to B6, for which the Ki with human plasma Kallikrein [3] is 343 nM. The Ki values of the last two molecules are within 1.5-fold of each other.

B7: Ac-(06-34-18) Scram 3 (peptide)
peptide: Ac-CAPWSRCLHQDLC-NH2
modifications: linker 1-7-13 via TBMB
SMILES: CC(=O)N[C@H]1CSCc2cc3cc(c2)CSC[C@H](NC(=O)[C@H](CCCNC(=N)N)NC(=O)[C@H](CO)NC(=O)[C@H](Cc2c[nH]c4ccccc24)NC(=O)[C@@H]2CCCN2C(=O)[C@H](C)NC1=O)C(=O)N[C@@H](CC(C)C)C(=O)N[C@@H](Cc1c[nH]cn1)C(=O)N[C@@H](CCC(N)=O)C(=O)N[C@@H](CC(=O)O)C(=O)N[C@@H](CC(C)C)C(=O)N[C@H](C(N)=O)CSC3
Take B7: the Ki with human plasma Kallikrein [1] was found to be 1890 nM. This counts as single-digit micromolar.

The molecule Ac-CSF[Aze]Y[hArg]CLHQDLC-NH2 (linker 1-7-13 via TBMB) [Ac-(06-34-18) Phe2 Aze3 Tyr4 HomoArg5] had a Ki in the test with human plasma Kallikrein [4] of 0.12 nM.

On to Ac-CSF[Aze]Y[Phe(4-guanidino)]CLHQDLC-NH2 (linker 1-7-13 via TBMB) [Ac-(06-34-18) Phe2 Aze3Tyr4 4GuanPhe5], for which the affinity with human plasma Kallikrein [4] corresponds to a Ki of 0.36 nM.

B8: Ac-(06-34-18) Cit5 (peptide)
peptide: Ac-CSWPA[Cit]CLHQDLC-NH2
modifications: linker 1-7-13 via TBMB
SMILES: CC(=O)N[C@H]1CSCc2cc3cc(c2)CSC[C@H](NC(=O)[C@H](CCCNC(N)=O)NC(=O)[C@H](C)NC(=O)[C@@H]2CCCN2C(=O)[C@H](Cc2c[nH]c4ccccc24)NC(=O)[C@H](CO)NC1=O)C(=O)N[C@@H](CC(C)C)C(=O)N[C@@H](Cc1c[nH]cn1)C(=O)N[C@@H](CCC(N)=O)C(=O)N[C@@H](CC(=O)O)C(=O)N[C@@H](CC(C)C)C(=O)N[C@H](C(N)=O)CSC3
In turn, B8 yielded a Ki with human plasma Kallikrein [2] of 7860 nM.

B9: Ac-(06-34-18) βhomoArg5 (peptide)
peptide: Ac-CSWPA[β3hR]CLHQDLC-NH2
modifications: linker 1-7-13 via TBMB
SMILES: CC(=O)N[C@H]1CSCc2cc3cc(c2)CSC[C@H](NC(=O)C[C@H](CCCNC(=N)N)NC(=O)[C@H](C)NC(=O)[C@@H]2CCCN2C(=O)[C@H](Cc2c[nH]c4ccccc24)NC(=O)[C@H](CO)NC1=O)C(=O)N[C@@H](CC(C)C)C(=O)N[C@@H](Cc1c[nH]cn1)C(=O)N[C@@H](CCC(N)=O)C(=O)N[C@@H](CC(=O)O)C(=O)N[C@@H](CC(C)C)C(=O)N[C@H](C(N)=O)CSC3
In the case of B9, the Ki in the test with human plasma Kallikrein [2] came out at 8.2 nM.

B10: Ac-(06-34-18) Δ Arg5 (peptide)
peptide: Ac-CSWPACLHQDLC-NH2
modifications: linker 1-6-12 via TBMB
SMILES: CC(=O)N[C@H]1CSCc2cc3cc(c2)CSC[C@H](NC(=O)[C@H](C)NC(=O)[C@@H]2CCCN2C(=O)[C@H](Cc2c[nH]c4ccccc24)NC(=O)[C@H](CO)NC1=O)C(=O)N[C@@H](CC(C)C)C(=O)N[C@@H](Cc1c[nH]cn1)C(=O)N[C@@H](CCC(N)=O)C(=O)N[C@@H](CC(=O)O)C(=O)N[C@@H](CC(C)C)C(=O)N[C@H](C(N)=O)CSC3
notes: Residue ranges derived from the stated deletion of Arg5
Turning to B10, the Ki in the test with human plasma Kallikrein [2] was > 100000 nM.

B11: Ac-(06-34-18) Scram 2 (peptide)
peptide: Ac-CWASPRCLHQDLC-NH2
modifications: linker 1-7-13 via TBMB
SMILES: CC(=O)N[C@H]1CSCc2cc3cc(c2)CSC[C@H](NC(=O)[C@H](CCCNC(=N)N)NC(=O)[C@@H]2CCCN2C(=O)[C@H](CO)NC(=O)[C@H](C)NC(=O)[C@H](Cc2c[nH]c4ccccc24)NC1=O)C(=O)N[C@@H](CC(C)C)C(=O)N[C@@H](Cc1c[nH]cn1)C(=O)N[C@@H](CCC(N)=O)C(=O)N[C@@H](CC(=O)O)C(=O)N[C@@H](CC(C)C)C(=O)N[C@H](C(N)=O)CSC3
Molecule B11 returned a Ki with human plasma Kallikrein [1] of 11400 nM.

B12: Ac-(06-34-18) A2A3 (peptide)
peptide: Ac-CSAAARCLHQDLC-NH2
modifications: linker 1-7-13 via TBMB
SMILES: CC(=O)N[C@H]1CSCc2cc3cc(c2)CSC[C@H](NC(=O)[C@H](CCCNC(=N)N)NC(=O)[C@H](C)NC(=O)[C@H](C)NC(=O)[C@H](C)NC(=O)[C@H](CO)NC1=O)C(=O)N[C@@H](CC(C)C)C(=O)N[C@@H](Cc1c[nH]cn1)C(=O)N[C@@H](CCC(N)=O)C(=O)N[C@@H](CC(=O)O)C(=O)N[C@@H](CC(C)C)C(=O)N[C@H](C(N)=O)CSC3
B12: the “fold reduction of binding against Ac-06-34-18(TMB)-NH2” value with human plasma Kallikrein [5] was ~100000 fold. In the test with human plasma Kallikrein [1], this molecule came in with a Ki of 18500 nM.

B13: Ac-(06-34-18) A2Q3 (peptide)
peptide: Ac-CSAQARCLHQDLC-NH2
modifications: linker 1-7-13 via TBMB
SMILES: CC(=O)N[C@H]1CSCc2cc3cc(c2)CSC[C@H](NC(=O)[C@H](CCCNC(=N)N)NC(=O)[C@H](C)NC(=O)[C@H](CCC(N)=O)NC(=O)[C@H](C)NC(=O)[C@H](CO)NC1=O)C(=O)N[C@@H](CC(C)C)C(=O)N[C@@H](Cc1c[nH]cn1)C(=O)N[C@@H](CCC(N)=O)C(=O)N[C@@H](CC(=O)O)C(=O)N[C@@H](CC(C)C)C(=O)N[C@H](C(N)=O)CSC3
Consider B13, for which, in the test with human plasma Kallikrein [5], the “fold reduction of binding against Ac-06-34-18(TMB)-NH2” value is ~100000 fold. In the test with human plasma Kallikrein [1], this molecule returned a Ki of 15800 nM.

B14: Ac-(06-34-18) NMeSer1 (peptide)
peptide: Ac-C[NMeS]WPARCLHQDLC-NH2
modifications: linker 1-7-13 via TBMB
SMILES: CC(=O)N[C@H]1CSCc2cc3cc(c2)CSC[C@H](NC(=O)[C@H](CCCNC(=N)N)NC(=O)[C@H](C)NC(=O)[C@@H]2CCCN2C(=O)[C@H](Cc2c[nH]c4ccccc24)NC(=O)[C@H](CO)N(C)C1=O)C(=O)N[C@@H](CC(C)C)C(=O)N[C@@H](Cc1c[nH]cn1)C(=O)N[C@@H](CCC(N)=O)C(=O)N[C@@H](CC(=O)O)C(=O)N[C@@H](CC(C)C)C(=O)N[C@H](C(N)=O)CSC3
B14 came in with a Ki in the test with human plasma Kallikrein [3] of 0.5 nM.

B15: Ac-(06-34-18) NMeTrp2 (peptide)
peptide: Ac-CS[NMeW]PARCLHQDLC-NH2
modifications: linker 1-7-13 via TBMB
SMILES: CC(=O)N[C@H]1CSCc2cc3cc(c2)CSC[C@H](NC(=O)[C@H](CCCNC(=N)N)NC(=O)[C@H](C)NC(=O)[C@@H]2CCCN2C(=O)[C@H](Cc2c[nH]c4ccccc24)N(C)C(=O)[C@H](CO)NC1=O)C(=O)N[C@@H](CC(C)C)C(=O)N[C@@H](Cc1c[nH]cn1)C(=O)N[C@@H](CCC(N)=O)C(=O)N[C@@H](CC(=O)O)C(=O)N[C@@H](CC(C)C)C(=O)N[C@H](C(N)=O)CSC3
The molecule B15 registered a Ki with human plasma Kallikrein [3] of 228 nM. Compared with the last molecule, the Ki is about 460-fold higher.
